Laboratory results: patent publication US20220324977A1 (BEIJING SINOGENE BIOTECHNOLOGY, published 2022)

What was measured:
[1] = biological target: T1, canine PD-1 protein amino acids 25-168 with His tag (canine, UniProt A0A090BAM7 25-168); experiment: kinetics, PD-1 His 1.1 nM
T1 construct: Expressed in Expi293F cells; used as immunogen and as antigen in ELISA and Octet; also called PD-1 His

[2] = biological target: T1, canine PD-1 protein amino acids 25-168 …; experiment: kinetics, PD-1 His 4.0 nM
[3] = biological target: T1, canine PD-1 protein amino acids 25-168 …; experiment: kinetics, PD-1 His 12.4 nM
[4] = biological target: T1, canine PD-1 protein amino acids 25-168 …; experiment: kinetics, PD-1 His 37.3 nM
[5] = biological target: T1, canine PD-1 protein amino acids 25-168 …; experiment: kinetics, PD-1 His 111.3 nM
[6] = biological target: T1, canine PD-1 protein amino acids 25-168 …; experiment: kinetics, PD-1 His 333.3 nM
[7] = biological target: T1, canine PD-1 protein amino acids 25-168 …; experiment: kinetics, PD-1 His 1000.0 nM
[8] = biological target: T1, canine PD-1 protein amino acids 25-168 …; experiment: kinetics, global fit over PD-1 His 1.1-1000 nM
[9] = biological target: T1, canine PD-1 protein amino acids 25-168 …; experiment: kinetics, global fit over the PD-1 His series 1.1-1000.0 nM
[10] = biological target: T2, PD1 on the surface of T cells (canine PBMC stimulated with ConA) (canine, UniProt A0A090BAM7 25-288); experiment: flow cytometry, ConA-stimulated canine PBMC, CD3-FITC and PE-labeled anti-canine IgG
T2 construct: also called canine PD-1
T2 sequence (A0A090BAM7 entry or part of it limits assumed): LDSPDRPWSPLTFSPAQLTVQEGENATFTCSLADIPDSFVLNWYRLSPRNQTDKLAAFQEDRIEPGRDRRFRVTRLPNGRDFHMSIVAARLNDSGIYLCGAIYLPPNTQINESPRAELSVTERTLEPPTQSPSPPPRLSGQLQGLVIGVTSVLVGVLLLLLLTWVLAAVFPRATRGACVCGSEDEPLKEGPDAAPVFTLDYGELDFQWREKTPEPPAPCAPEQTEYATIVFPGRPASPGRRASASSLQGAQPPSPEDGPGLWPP
Experimental: (§1) The cells were stimulated by 0.5 μg/mL ConA for 3 days, and collected. PBMC was incubated with canine-anti-CD3-FITC and caninized monoclonal antibodies C1, C3 and C11 respectively. Then the cells were incubated again with PE-labeled canine-IgG antibody. […] Moreover, the results also indicate that the caninized monoclonal antibodies C1, C3 and C11 have potential blocking effect on the PD1/PD-L1 signaling pathway, and thus have protective effect on the function of T cells (see FIG. 14).

[11] = biological target: T2, PD1 on the surface of T cells (canine …); experiment: flow cytometry on ConA-stimulated canine PBMC, stained with anti-CD3-FITC and the caninized antibody, detected with PE-labeled anti-canine IgG; quadrant plot FITC against PE; no unstained or isotype control shown
Experimental: as §1

T1 sequence (A0A090BAM7 entry or part of it limits assumed): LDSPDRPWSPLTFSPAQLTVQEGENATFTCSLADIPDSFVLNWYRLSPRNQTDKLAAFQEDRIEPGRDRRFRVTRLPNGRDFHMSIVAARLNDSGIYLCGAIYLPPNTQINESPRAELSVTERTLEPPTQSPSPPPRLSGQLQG

B1: caninized monoclonal antibody C11 (antibody, V domains shown)
VH: EVQLQQSGAEVVKPGASVKLSCTASGFNIKDTYMHWVKQRPEQGLEWIGRIDPAIGNPKYDPKFQGRATITADTSSNTAYLQLSSLTSEDTAVYYCASGFYAMDCWGQGTSVTVSS
VL: QIVLTQSPAIMSASPGEKVTMTCSASSSITYMFWYQQKPGSSPRLWIYDTSNLVSGVPARFSGSKSGTSYSLTITSMEAEDAATYYCQQYSGYPSTFGSGTKLEIKR
notes: Variable domains as for M11; also called C11(37.40); 37.40
For B1, the “Response (nm)” value [1] was -0.003 nm, the “Response (nm)” value [2] was 0.004 nm and the Kd [3] was less than 1 pM. The “Response (nm)” value [3] was 0.008 nm, the koff [3] was less than 1e-07 s⁻¹ and the kon [3] was 50100 M⁻¹ s⁻¹. For the same binder, the Kd [4] was less than 1 pM, the “Response (nm)” value [4] was 0.015 nm and the koff [4] was less than 1e-07 s⁻¹. The kon [4] was 67600 M⁻¹ s⁻¹, the Kd [5] was less than 1 pM and the “Response (nm)” value [5] was 0.025 nm. The koff [5] was less than 1e-07 s⁻¹, the kon [5] was 23800 M⁻¹ s⁻¹ and the Kd [6] was less than 1 pM. For the same binder, the “Response (nm)” value [6] was 0.012 nm, the koff [6] was less than 1e-07 s⁻¹ and the kon [6] was 947 M⁻¹ s⁻¹. For the same binder, the Kd [7] was less than 1 pM, the “Response (nm)” value [7] was 0.009 nm and the koff [7] was less than 1e-07 s⁻¹. For the same binder, the kon [7] was 1470 M⁻¹ s⁻¹, the Kd [8] was less than 1 pM and the koff [8] was less than 1e-07 s⁻¹. For the same binder, the kon [8] was 1190 M⁻¹ s⁻¹, the Kd [9] was less than 1 pM and the koff [9] was less than 1e-07 s⁻¹. The kon [9] was 1190 M⁻¹ s⁻¹, the “PD1 positive cells in T cells” value [10] was 96.7% and the “% of cells in quadrant Q2 (Comp-FITC-A positive, Comp-PE-A positive)” value [11] was 62.6%.
